From PMC6445123 (Scientific Reports, 2019)
Changes are numbered by the printed parent chain. In names and notes the source's numbering stands. Marks after values point to notes of the source that are not given here.

T1: recombinant active Casp6 (Casp6-WT) (Homo sapiens, UniProt P55212, INS179NQTEKLDTNITEVD)
T1 construct: generating mainly large subunit with a linker (LS-L), small subunit (SS), and a minor amount of large subunit (LS); His (C); made in house; host or cells: E. coli BL21(DE3)pLysS
T1 sequence (P55212 24-193 limits assumed): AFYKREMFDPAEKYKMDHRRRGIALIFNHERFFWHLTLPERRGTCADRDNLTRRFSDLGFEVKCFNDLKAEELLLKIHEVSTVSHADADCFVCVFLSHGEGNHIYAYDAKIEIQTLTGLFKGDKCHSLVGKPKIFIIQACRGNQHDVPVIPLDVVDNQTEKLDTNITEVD
T1 sequence (P55212 194-293 limits assumed): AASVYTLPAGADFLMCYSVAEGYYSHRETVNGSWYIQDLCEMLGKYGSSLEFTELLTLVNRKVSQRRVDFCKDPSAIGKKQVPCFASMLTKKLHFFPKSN

B1: Casp6-E35K: recombinant rare natural human Casp6 missense variant E35K (protein)
chain 1: T1 sequence (P55212 24-193 limits assumed) with E12K
chain 2: T1 sequence (P55212 194-293 limits assumed)
modifications: left off: His (from the plasmid name pET23b-Casp6-His), end not stated, state not stated
B2: Casp6-L200A: Casp6 L200A alanine mutant from full-length construct, poorly self-processed (protein, UniProt P55212 1-293, looked up, variant L200A)
chain: MSSASGLRRGHPAGGEENMTETDAFYKREMFDPAEKYKMDHRRRGIALIFNHERFFWHLTLPERRGTCADRDNLTRRFSDLGFEVKCFNDLKAEELLLKIHEVSTVSHADADCFVCVFLSHGEGNHIYAYDAKIEIQTLTGLFKGDKCHSLVGKPKIFIIQACRGNQHDVPVIPLDVVDNQTEKLDTNITEVDAASVYTAPAGADFLMCYSVAEGYYSHRETVNGSWYIQDLCEMLGKYGSSLEFTELLTLVNRKVSQRRVDFCKDPSAIGKKQVPCFASMLTKKLHFFPKSN
modifications: full-length
notes: Casp6 L200A alanine mutant from full-length construct, poorly self-processed
B3: Casp6-K284A-LS-SS: fully processed Casp6 K284A from co-expression of large and small subunits (protein, UniProt P55212 1-293, looked up, variant K284A)
chain: B2 chain with A200L, K284A
B4: Casp6-L200A-LS-SS: fully processed Casp6 L200A from co-expression of large and small subunits (protein, UniProt P55212 1-293, looked up, variant L200A)
chain: B2 chain
B5: Casp6-WT: recombinant wild-type human Casp6 expressed in E. coli from full-length construct (protein, UniProt P55212 1-293, looked up)
chain: B2 chain with A200L
modifications: full-length
notes: recombinant wild-type human Casp6 expressed in E. coli from full-length construct

What was measured:
[1] = molecular target: T1, recombinant active Casp6 (Casp6-WT); assay: Fluorescence-based Ac-VEID-AFC cleavage assay (Casp6 activity, IC50 determination); format: biochemical; conditions: for % Inhibition with 100 µM compound (fluorescence assay) / IC50: 10 µM Ac-VEID-AFC; for % Inhibition with 100 µM compound (fluorescence assay): 20 nM Casp6, relative to 1% DMSO control; for fold increase in IC50 (reduction in potency) compared to C13: Casp6-WT; for IC50: fluorescence assay, 20 nM Casp6 active sites, read-out: IC50
Method: To assess the potency of in silico hits, a fluorescence-based Ac-VEID-AFC cleavage assay was used to measure recombinant active Casp6 reaction rate in the absence or presence of 100 µM concentration of compounds. A 30% inhibition cut off was arbitrarily chosen for further investigation of putative inhibitors. […] AFC signal interference by compound intrinsic fluorescence was ruled out (Fig. S4). Casp6 inhibition was confirmed for seven compounds (C7, C13, C14, S2, S10, S11 and S13) using a colorimetric Ac-VEID-pNA cleavage assay (Table 2, Fig. S3).
(§1) Casp6 active sites were quantified using zVAD-FMK (N-benzyloxycarbonyl-Val-Ala-Asp-(O-methyl)-fluoromethylketone, MP Biomedicals, Santa Ana, CA, USA)[51],[64]. Casp6 activity was measured in Stennicke’s buffer (SB: 20 mM piperazine-N,N′-bis-(2-ethanesulfonic acid) pH 7.2, 100 mM NaCl, 10 mM DTT, 1 mM EDTA, 0.1% 3-[(3-cholamidopropyl)-dimethylammonio]-2-hydroxy-1-propanesulfonic acid, 10% sucrose)[65] using 40 µM Ac-VEID-AFC (Ac-Val-Glu-Ile-Asp-7-Amino-4-trifluoromethylcoumarin, Enzo Life Sciences, Farmingdale, NY, USA)[64] and 10-250 nM active site titrated Casp6. Reactions were initiated by Ac-VEID-AFC addition and followed for 20 min at 37 °C in a black clear bottom 96-well microplate (Costar, Corning, NY, USA) in Synergy H4 Hybrid instrument (BioTek, Winooski, VT, USA) with excitation/emission at 380/505 nm. Released AFC was calculated from AFC standard curve (0-25 µM). Casp6 VEIDase activity (released pmol AFC/min) was calculated from the initial linear reaction part. Ac-VEID-AFC hydrolysis initial velocities were measured with 10 nM active-site titrated Casp6 and […] Ac-VEID-AFC. Initial velocities v versus substrate concentration [S] were fit to a rectangular hyperbola using Michaelis-Menten equation in GraphPad Prism 5 (GraphPad Software, La Jolla, CA, USA).
In fluorescence-based Casp6 activity assay, 10 µM Ac-VEID-AFC was added to 20 nM Casp6 in SB with 100 μM compound and 1% dimethyl sulfoxide (DMSO), and reaction rate was measured for 20 min at 37 °C as above. Compound potency was calculated by normalising Ac-VEID-AFC cleavage rate to 1% DMSO control. In colorimetric Casp6 activity assay, 200 µM Ac-VEID-pNA (N-acetyl-Val-Glu-Ile-Asp-p-nitroanilide, Enzo Life Sciences) was added to 200 nM Casp6 in SB with 100 μM compound, and Ac-VEID-pNA cleavage rate was measured at 37 °C for 30 min in clear 96-well plate (Sartstedt, Nümbrecht, Germany) using Synergy H4 plate reader at 405 nm. Absorbance was converted to the released pNA amount based on a standard curve of 0–250 µM pNA. Cleavage rates were calculated from the linear assay phase and were normalised to 1% DMSO control. In Casp6-C163A cleavage assay, 0.5 ng/µl Casp6-WT was preincubated with 100 µM inhibitor, 5 µM Q-VD-OPh or 1% DMSO in SB (30 min, RT), followed by transfer on ice, addition of 0.5 µg/µl Casp6-C163A, and incubation (37 °C, 5, 10 and 15 min). Reactions were stopped by adding SDS-PAGE sample buffer (62.5 mM Tris pH 6.8, 2% SDS, 0.1 M DTT, 0.01% Bromphenol Blue, 10% glycerol) and heating (5 min, 95 °C). Samples (2 µl) were analysed on 15% SDS-PAGE gels, proteins were stained with Coomassie blue, and gels were de-stained with 10% acetic acid. The intensities of protein bands were quantified from scanned gels using ImageJ. The band intensity of Casp6-C163A without a prodomain was plotted against the time and the Casp6-C163A cleavage rates were calculated from the slopes of linear plots. The % activity of Casp6-WT in the presence of inhibitors was calculated relative to DMSO control.
IC50 values were determined against 20 nM Casp6 active sites in fluorescence-based Casp6 activity assay with 10 µM Ac-VEID-AFC and 1 nM-500 µM inhibitor. IC50 was calculated with GraphPad Prism 5 by a nonlinear regression fit for log inhibitor vs relative Casp6 activity (% DMSO control) using a Hill slope of – 1, and top and bottom constraints of 100 and 0, respectively.

[2] = Ac-VEID-AFC hydrolysis kinetics of recombinant Casp6 variants (Michaelis-Menten); format: biochemical, human; conditions: for Km / kcat: Ac-VEID-AFC hydrolysis, mean ± SD
Description: In this study, we investigated how naturally occurring rare missense variants of human CASP6 affect Casp6 activity and structure. […] A34, E35, A109, and T182 are not conserved in 12 human caspases and in Casp6 from different species (Fig. 1a,b). Recombinant Casp6-WT and the four variants were expressed in E. coli, purified, and active site titrated (Fig. S2) for functional analyses. Like Casp6-WT, Casp6 variants, underwent complete self-processing at TETD23, and TEVD193 sites, and slight self-cleavage at the DVVD179 site, generating mainly large subunit with a linker (LS-L), small subunit (SS), and a minor amount of large subunit (LS) (Fig. 1c,d).
as §1

| Molecule | % Inhibition with 100 µM compound (fluorescence assay) [1] | fold increase in IC50 (reduction in potency) compared to C13 [1] [fold] | Km [2] [µM] | kcat [2] [s⁻¹] | also measured |
| --- | --- | --- | --- | --- | --- |
| COC(=O)c1cc(CNC(=O)c2cc(C)cc(C)c2)cc(NC(=O)c2ccco2)c1 [Compound C13G] | 55.5 ± 8.8^a % | 2 | – | – | IC50 [1]: 21.5 ± 2 µM; potency for Casp6 of in-house synthesised compound compared to commercial compound ([1]; synthesised in the authors' laboratory vs commercial source): lower potency |
| COC(=O)c1cc(CNC(=O)C2(c3ccc(Cl)cc3)CCC2)cc(NC(=O)c2ccco2)c1 [Compound C13F] | 43.2 ± 10.9^a % | 2 | – | – | IC50 [1]: 27 ± 1.6 µM |
| COC(=O)c1cc(CNC(=O)c2c(-c3ccccc3)noc2C)cc(NC(=O)c2ccco2)c1 [Compound C13D] | 5.5 ± 4.1^a % | 155 | – | – | – |
| COC(=O)c1cc(CNC(=O)C(C)(C)C)cc(NC(=O)c2ccco2)c1 [Compound C13E] | −8.3 ± 1.7^a % | – | – | – | potency against Casp6 (in words) [1]: low potency |
| COC(=O)c1cc(CN)cc(NC(=O)c2ccco2)c1 [Compound C13B] | 2.3 ± 3.1^a % | – | – | – | potency against Casp6 (in words) [1]: low potency |
| B1 | – | – | 37.1 ± 4.9 | 1.71 ± 0.13 | fold reduced catalytic efficiency kcat/KM compared with Casp6-WT [2]: ~ 2 fold |
| B2 | – | – | 316 ± 162 | 0.05 ± 0.03 | fold higher KM compared to Casp6-WT or Casp6-WT-LS-SS [2]: 10 fold; fold reduction in kcat compared to Casp6-WT [2]: 45 fold |
| B3 | – | – | 27.7 ± 2.7 | 2.8 ± 0.2 | – |
| B4 | – | – | 196 ± 84.4 | 2.8 ± 0.8 | fold higher KM compared to Casp6-WT or Casp6-WT-LS-SS [2]: 8 fold |
| B5 | – | – | 31.2 ± 6.7 | 2.27 ± 0.30 | – |
